Earlier results, collected in paper PMC4077824, “Conserved Prosegment Residues Stabilize a Late-Stage Folding Transition State of Pepsin Independently of Ground States” (PLoS ONE, 2014).

Test system: αLP
Source text: General thermodynamic and kinetic features of protein folding are known, such as that the natively folded conformation of a protein is thermodynamically stabilized and that there is a relationship between topology and folding rate, which holds for both two-state and multi-state folding proteins, [3]. […] In the case of pepsin, Rp was characterized by a ΔG unf of 5.8 kcal/mol, a 10% increase in unordered secondary structure and identical tertiary structure to Np (both yield R g ∼20 Å).

B1: αLP: serine peptidase αLP (alpha-lytic protease) (protein, UniProt P00778 200-397, looked up)
Alpha-lytic protease: ANIVGGIEYSINNASLCSVGFSVTRGATKGFVTAGHCGTVNATARIGGAVVGTFAARVFPGNDRAWVSLTSAQTLLPRVANGSSFVTVRGSTEAAVGAAVCRSGRTTGYQCGTITAKNVTANYAEGAVRGLTQGNACMGRGDSGGSWITSAGQAQGVMSGGNVQSNGNNCGIPASQRSSLFERLQPILSQYGLSLVTG
For B1, the “ΔG N-I” value (native state relative to an intermediate state, ref [8]) is given as -4 kcal/mol, the “stability of intermediate over native state” value (αLP intermediate more stable than native state, ref [4]) is given as 4 kcal/mol and the ΔG unf (αLP intermediate, ref [4]) is given as 1 kcal/mol.
